Reference: publication PMC10200994

B1: STAT5B (unphosphorylated, wild-type), fluorophore fusion [not stated] / STAT5B (unphosphorylated, wild-type), fluorophore fusion [not stated] (parent)
chain 1: MAVWIQAQQLQGEALHQMQALYGQHFPIEVRHYLSQWIESQAWDSVDLDNPQENIKATQLLEGLVQELQKKAEHQVGEDGFLLKIKLGHYATQLQNTYDRCPMELVRCIRHILYNEQRLVREANNGSSPAGSLADAMSQKHLQINQTFEELRLVTQDTENELKKLQQTQEYFIIQYQESLRIQAQFGPLAQLSPQERLSRETALQQKQVSLEAWLQREAQTLQQYRVELAEKHQKTLQLLRKQQTIILDDELIQWKRRQQLAGNGGPPEGSLDVLQSWCEKLAEIIWQNRQQIRRAEHLCQQLPIPGPVEEMLAEVNATITDIISALVTSTFIIEKQPPQVLKTQTKFAATVRLLVGGKLNVHMNPPQVKATIISEQQAKSLLKNENTRNDYSGEILNNCCVMEYHQATGTLSAHFRNMSLKRIKRSDRRGAESVTEEKFTILFESQFSVGGNELVFQVKTLSLPVVVIVHGSQDNNATATVLWDNAFAEPGRVPFAVPDKVLWPQLCEALNMKFKAEVQSNRGLTKENLVFLAQKLFNNSSSHLEDYSGLSVSWSQFNRENLPGRNYTFWQWFDGVMEVLKKHLKPHWNDGAILGFVNKQQAHDLLINKPDGTFLLRFSDSEIGGITIAWKFDSQERMFWNLMPFTTRDFSIRSLADRLGDLNYLIYVFPDRPKDEVYSKYYTPVPCESATAKAVDGYVKPQIKQVVPEFVNASADAGGGSATYMDQAPSPAVCPQAHYNMYPQNPDSVLDTDGDFDLEDTMDVARRVEELLGRPMDSQWIPHAQS
chain 2: B1 chain 1
B2: STAT1 (unphosphorylated, wild-type), fluorophore fusion [not stated] / STAT1 (unphosphorylated, wild-type), fluorophore fusion [not stated] (parent)
chain 1: MSQWYELQQLDSKFLEQVHQLYDDSFPMEIRQYLAQWLEKQDWEHAANDVSFATIRFHDLLSQLDDQYSRFSLENNFLLQHNIRKSKRNLQDNFQEDPIQMSMIIYSCLKEERKILENAQRFNQAQSGNIQSTVMLDKQKELDSKVRNVKDKVMCIEHEIKSLEDLQDEYDFKCKTLQNREHETNGVAKSDQKQEQLLLKKMYLMLDNKRKEVVHKIIELLNVTELTQNALINDELVEWKRRQQSACIGGPPNACLDQLQNWFTIVAESLQQVRQQLKKLEELEQKYTYEHDPITKNKQVLWDRTFSLFQQLIQSSFVVERQPCMPTHPQRPLVLKTGVQFTVKLRLLVKLQELNYNLKVKVLFDKDVNERNTVKGFRKFNILGTHTKVMNMEESTNGSLAAEFRHLQLKEQKNAGTRTNEGPLIVTEELHSLSFETQLCQPGLVIDLETTSLPVVVISNVSQLPSGWASILWYNMLVAEPRNLSFFLTPPCARWAQLSEVLSWQFSSVTKRGLNVDQLNMLGEKLLGPNASPDGLIPWTRFCKENINDKNFPFWLWIESILELIKKHLLPLWNDGCIMGFISKERERALLKDQQPGTFLLRFSESSREGAITFTWVERSQNGGEPDFHAVEPYTKKELSAVTFPDIIRNYKVMAAENIPENPLKYLYPNIDKDHAFGKYYSRPKEAPEPMELDGPKGTGYIKTELISVSEVHPSRLQTTDNLLPMSPEEFDEVSRIVGSVEFDSMMNTV
chain 2: B2 chain 1
B3: STAT4 (unphosphorylated, wild-type), fluorophore fusion [not stated] / STAT4 (unphosphorylated, wild-type), fluorophore fusion [not stated] (parent)
chain 1: MSQWNQVQQLEIKFLEQVDQFYDDNFPMEIRHLLAQWIENQDWEAASNNETMATILLQNLLIQLDEQLGRVSKEKNLLLIHNLKRIRKVLQGKFHGNPMHVAVVISNCLREERRILAAANMPVQGPLEKSLQSSSVSERQRNVEHKVAAIKNSVQMTEQDTKYLEDLQDEFDYRYKTIQTMDQSDKNSAMVNQEVLTLQEMLNSLDFKRKEALSKMTQIIHETDLLMNTMLIEELQDWKRRQQIACIGGPLHNGLDQLQNCFTLLAESLFQLRRQLEKLEEQSTKMTYEGDPIPMQRTHMLERVTFLIYNLFKNSFVVERQPCMPTHPQRPLVLKTLIQFTVKLRLLIKLPELNYQVKVKASIDKNVSTLSNRRFVLCGTNVKAMSIEESSNGSLSVEFRHLQPKEMKSSAGGKGNEGCHMVTEELHSITFETQICLYGLTIDLETSSLPVVMISNVSQLPNAWASIIWYNVSTNDSQNLVFFNNPPPATLSQLLEVMSWQFSSYVGRGLNSDQLHMLAEKLTVQSSYSDGHLTWAKFCKEHLPGKSFTFWTWLEAILDLIKKHILPLWIDGYVMGFVSKEKERLLLKDKMPGTFLLRFSESHLGGITFTWVDHSESGEVRFHSVEPYNKGRLSALPFADILRDYKVIMAENIPENPLKYLYPDIPKDKAFGKHYSSQPCEVSRPTERGDKGYVPSVFIPISTIRSDSTEPHSPSDLLPMSPSVYAVLRENLSPTTIETAMKSPYSAE
chain 2: B3 chain 1
B4: STAT5A (unphosphorylated, wild-type), fluorophore fusion [not stated] / STAT5A (unphosphorylated, wild-type), fluorophore fusion [not stated] (parent)
chain 1: MAGWIQAQQLQGDALRQMQVLYGQHFPIEVRHYLAQWIESQPWDAIDLDNPQDRAQATQLLEGLVQELQKKAEHQVGEDGFLLKIKLGHYATQLQKTYDRCPLELVRCIRHILYNEQRLVREANNCSSPAGILVDAMSQKHLQINQTFEELRLVTQDTENELKKLQQTQEYFIIQYQESLRIQAQFAQLAQLSPQERLSRETALQQKQVSLEAWLQREAQTLQQYRVELAEKHQKTLQLLRKQQTIILDDELIQWKRRQQLAGNGGPPEGSLDVLQSWCEKLAEIIWQNRQQIRRAEHLCQQLPIPGPVEEMLAEVNATITDIISALVTSTFIIEKQPPQVLKTQTKFAATVRLLVGGKLNVHMNPPQVKATIISEQQAKSLLKNENTRNECSGEILNNCCVMEYHQATGTLSAHFRNMSLKRIKRADRRGAESVTEEKFTVLFESQFSVGSNELVFQVKTLSLPVVVIVHGSQDHNATATVLWDNAFAEPGRVPFAVPDKVLWPQLCEALNMKFKAEVQSNRGLTKENLVFLAQKLFNNSSSHLEDYSGLSVSWSQFNRENLPGWNYTFWQWFDGVMEVLKKHHKPHWNDGAILGFVNKQQAHDLLINKPDGTFLLRFSDSEIGGITIAWKFDSPERNLWNLKPFTTRDFSIRSLADRLGDLSYLIYVFPDRPKDEVFSKYYTPVLAKAVDGYVKPQIKQVVPEFVNASADAGGSSATYMDQAPSPAVCPQAPYNMYPQNPDHVLDQDGEFDLDETMDVARHVEELLRRPMDSLDSRLSPPAGLFTSARGSLS
chain 2: B4 chain 1

Variants of: B1
Assay: co-localization assay (quantitative fluorescence microscopy in HeLa cells)
Conditions: with STAT5B (unphosphorylated, wild-type), bait S5B-NES, test S5B-L82A, 32 cells (parent 10 cells), parent: 0.97

screen value	Variant
0.63	chain 1 L82A

Variants of: B2
Assay: as above
Conditions: with STAT1 (unphosphorylated, wild-type), bait S1-NLS, test S1-F77A, 20 cells (parent 12 cells), parent: 0.98

screen value	Variant
0.64	chain 1 F77A

Variants of: B3
Assay: as above
Conditions: with STAT4 (unphosphorylated, wild-type), bait S4-NES, test S4-L78S, 19 cells (parent 14 cells), parent: 0.95

screen value	Variant
0.68	chain 1 L78S

Variants of: B4
Assay: as above
Conditions: with STAT5A (unphosphorylated, wild-type), bait S5A-NES, test S5A-L82A, 19 cells (parent 13 cells), parent: 0.97

screen value	Variant
0.54	chain 1 L82A
